From paper PMC9060471, “Oleic acid is an endogenous ligand of TLX/NR2E1 that triggers hippocampal neurogenesis” (Proceedings of the National Academy of Sciences of the …, 2022) come the findings set out here.

This assay has as its target T1, 6xHis-TLX ligand-binding domain (UniProt Q9Y466 155-385).
T1 construct: Construct limits, species and expression host should stand in the SI Appendix (methods); also called TLX LBD; NR2E1; source: purified
The assay can be described thus: AlphaScreen or HTRF; ALPHA competition experiments in the presence of saturating 18:1ω9. The settings on record: both partners purified.

T1 sequence (Q9Y466 155-385): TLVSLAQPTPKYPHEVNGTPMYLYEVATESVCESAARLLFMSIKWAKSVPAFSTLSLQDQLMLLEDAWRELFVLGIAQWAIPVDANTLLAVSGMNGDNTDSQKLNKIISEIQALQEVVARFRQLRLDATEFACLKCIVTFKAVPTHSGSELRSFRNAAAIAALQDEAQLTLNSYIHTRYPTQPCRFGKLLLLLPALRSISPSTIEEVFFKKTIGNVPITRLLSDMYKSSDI

B1: receptor-interaction domain from NCOA3 (domain or fragment, UniProt Q9Y6Q9 621-821, looked up)
chain: LLQLLTCSSDDRGHSSLTNSPLDSSCKESSVSVTSPSGVSSSTSGGVSSTSNMHGSLLQEKHRILHKLLQNGNSPAEVAKITAEATGKDTSSITSCGDGNVVKQEQLSPKKKENNALLRYLLDRDDPSDALSKELQPQVEGVDNKMSQCTSSTIPSSSQEKDPKIKTETSEEGSGDLDNLDAILGDLTSSDFYNNSISSNG
notes: The methods name an AlphaScreen GST Detection Kit, so a GST fusion may have been used somewhere; see SI Appendix; also called SRC3
B1: the “EC50 with 18:1ω9” value worked out at 3.3 µM.
